Measurements from PMC6895265.

Assays:
[1] = target: TCF4 bHLH domain (Homo sapiens) (UniProt P15884); experiment: ITC; settings: ITC: 20 mM Tris pH 7.5, 150 mM NaCl, 25 C
[2] = target: TCF4 bHLH domain (Homo sapiens) (UniProt P15884); experiment: FP; settings: 25 C

Chain of TCF4 bHLH domain (Homo sapiens) (P15884 565-624): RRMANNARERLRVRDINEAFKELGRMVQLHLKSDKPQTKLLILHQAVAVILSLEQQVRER

ACGCACGTGCGT (double strand) [12-mer CG-flanked, X=C]
Kd [1]: 370 nM

CCGGTCACGTGTCCTA (double strand) [FAM 16-mer E-box C/C]
Kd ([2]; ITC: 20 mM Tris pH 7.5, 150 mM NaCl): 110 nM

CCGGTCACGTGTCCTA (double strand) [FAM 16-mer central CpG 5caC/C]
Kd ([2]; 5caC at strand 1 C8, ITC: 20 mM Tris pH 7.5, 150 mM NaCl): 140 nM

CCGGTCACGTGTCCTA (double strand) [FAM 16-mer central CpG F/C]
Kd ([2]; 5fC at strand 1 C8, ITC: 20 mM Tris pH 7.5, 150 mM NaCl): 190 nM

CCGGTCACGTGTCCTA (double strand) [FAM 16-mer central CpG H/C]
Kd ([2]; 5hmC at strand 1 C8, ITC: 20 mM Tris pH 7.5, 150 mM NaCl): 160 nM

CCGGTCACGTGTCCTA (double strand) [FAM 16-mer central CpG M/C]
Kd ([2]; 5mC at strand 1 C8, ITC: 20 mM Tris pH 7.5, 150 mM NaCl): 160 nM
